40 molecules from US20260242478A1 (published 2026) can be followed below.

In experiment [1] the target is T1, Anti-PSMA Fab (SEQ ID NOs: 19, 20).
T1 construct: also called 006 PSMA Fab
The experiment is described as follows: phage binding ELISA; biotinylated PSMA Fab on neutravidin plate pre-incubated with PSMA antigen (competitor), anti-M13 HRP detection. (In an ELISA, binding on a coated surface is turned into a signal by an enzyme label.)
Method: (§1) Clonal phage were harvested as crude supernatants and screened via standard ELISAs. […] Prior to the addition of clonal phage. wells were incubated with blocking buffer and PSMA antigen or blocking buffer alone. Without washing or aspirating, clonal phage supernatants were then added to the wells and incubated for a short time. Wells were then washed followed by detection of bound phage using a horse radish conjugated anti-M13 antibody.

For experiment [2] the target is unchanged. The experiment can be described thus: phage binding ELISA; biotinylated PSMA Fab on neutravidin plate, clonal phage supernatant, anti-M13 HRP detection.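 Further: wells were preincubated with blocking buffer either containing PSMA antigen or without it before crude phage supernatant was added, briefly incubated, then washed prior to detection.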
Method: as §1
The target in experiment [3] is T2, Anti-CD28 Fab (SEQ ID NOs: 696, 697).
T2 construct: Biotinylated and captured on neutravidin coated plates in the phage ELISA
The experiment is described as follows: phage ELISA; biotinylated anti-CD28 Fab on neutravidin plate, clonal phage supernatant, anti-M13 HRP detection.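 Further: before phage addition, wells were pretreated with either CD28 antigen in blocking buffer or only blocking buffer, and phage was added without an intervening wash.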
T2 sequence (VH, as listed by the source, chain 1 of 2): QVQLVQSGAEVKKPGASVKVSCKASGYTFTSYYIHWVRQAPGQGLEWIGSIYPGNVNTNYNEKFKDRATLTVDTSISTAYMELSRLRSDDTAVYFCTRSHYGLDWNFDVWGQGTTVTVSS
T2 sequence (VL, as listed by the source, chain 2 of 2): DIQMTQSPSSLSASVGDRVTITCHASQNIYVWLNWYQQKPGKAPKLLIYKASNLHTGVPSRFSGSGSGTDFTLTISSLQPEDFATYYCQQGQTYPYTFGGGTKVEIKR
Method: (§2) Clonal phage were harvested as crude supematants and screened via standard ELISAs. […] Prior to the addition of clonal phage, wells were incubated with blocking buffer and CD28 antigen or blocking buffer alone. Without washing or aspirating, clonal phage supematants were then added to the wells and incubated for a short time. Wells were then washed followed by detection of bound phage using a horse radish conjugated anti-M13 antibody.

For experiment [4] the target is unchanged. The experiment is described as follows: phage ELISA; biotinylated anti-CD28 Fab on neutravidin plate, wells pre-incubated with CD28 antigen as competitor, anti-M13 HRP detection.
Target sequence in this assay (VH, as listed by the source, chain 1 of 2): as the sequence (VH, as listed by the source, chain 1 of 2) above
Target sequence in this assay (VL, as listed by the source, chain 2 of 2): as the sequence (VL, as listed by the source, chain 2 of 2) above
Method: as §2
The target in experiment [5] is T3, PSMA Fab (biotinylated (site not stated)).
T3 construct: Biotinylated PSMA Fab captured on neutravidin coated plates for the clonal phage ELISA; also called Anti-PSMA Fab; 006 PSMA Fab
The experiment can be described thus: clonal phage supernatant ELISA on biotinylated PSMA Fab captured on neutravidin; anti-M13-HRP detection.

Experiment [6] addresses T3, PSMA Fab. The experiment can be described thus: clonal phage supernatant ELISA on PSMA Fab pre-incubated with PSMA antigen as competitor; anti-M13-HRP detection.
Method: as §1
For experiment [7], the target named is Anti-CD28 Fab (SEQ ID NOs: 696, 697). The experiment can be described thus: phage binding ELISA, clonal phage on biotinylated anti-CD28 Fab captured on neutravidin plates.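 Further: crude clonal phage supernatants added to wells pretreated with CD28 antigen or blocking buffer only, bound phage detected by HRP-linked anti-M13 antibody.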
Target sequence in this assay (VH, as listed by the source, chain 1 of 2): as the sequence (VH, as listed by the source, chain 1 of 2) above
Target sequence in this assay (VL, as listed by the source, chain 2 of 2): as the sequence (VL, as listed by the source, chain 2 of 2) above
For experiment [8] the target is unchanged. The experiment can be described thus: phage binding ELISA on captured anti-CD28 Fab, wells pre-incubated with CD28 antigen as competitor.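 Further: crude clonal phage supernatants added to wells preloaded with CD28 antigen, bound phage read by HRP-conjugated anti-M13 antibody, control wells got blocking buffer alone without CD28.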
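Wherever Anti-PSMA Fab signal in the presence of PSMA is given: competition ELISA where clonal phage supernatants were added to wells preincubated with PSMA antigen or with blocking buffer only as control, bound phage read via HRP-coupled anti-M13 antibody.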
Target sequence in this assay (VH, as listed by the source, chain 1 of 2): as the sequence (VH, as listed by the source, chain 1 of 2) above
Target sequence in this assay (VL, as listed by the source, chain 2 of 2): as the sequence (VL, as listed by the source, chain 2 of 2) above
Method: After panning, phage infected bacteria were plated out and colonies picked into 96 well blocks. Clonal phage was then amplified and separated from bacterial cells via centrifugation.
Clonal phage were harvested as crude supematants and screened via standard ELISAs. […] Prior to the addition of clonal phage, wells were incubated with blocking buffer and CD28 antigen or blocking buffer alone. Without washing or aspirating, clonal phage supematants were then added to the wells and incubated for a short time. Wells were then washed followed by detection of bound phage using a horse radish conjugated anti-M13 antibody. Clonal phage of interest were then sent for sequence analysis.

B1: Phage-1800 (peptide, not shown: large carriers)
peptide: ESRLCVPAWMCAGF
notes: Clonal phage supernatant; also called Peptide-270
For B1, in experiment [1], the “Anti-PSMA Fab signal in the presence of PSMA” value (“Anti-PSMA Fab signal” below) was found to be 0.103. Further, the “Anti-PSMA Fab (SEQ ID NOs: 19, 20) signal” value in experiment [2] was 2.41.
Turning to TCSAGFSYKWPWCW [Phage-1564], the “Phage binding ELISA, Anti-CD28 Fab signal” value in experiment [3] is 1.45. Moreover, in experiment [4], the “Phage binding ELISA, Anti-CD28 Fab signal in the presence of CD28” value was found to be 0.06.
For the molecule TAHHCKPAWMCTGF (peptide, not shown: large carriers, Clonal phage supernatant) [Phage-1796], the “Anti-PSMA Fab signal” value in experiment [1] was determined as 0.103. Also, in experiment [2], the “Anti-PSMA Fab (SEQ ID NOs: 19, 20) signal” value turned out to be 2.42.

B2: Phage-3112 (peptide)
peptide: EPQMCIPRWMCDGF
notes: Clonal phage of the peptide-180 library; not shown: pIII filament protein of the bacteriophage, fused to the peptide
As to B2, the “Phage binding ELISA signal, Anti-PSMA Fab” value with PSMA Fab [5] came out at 2.08. Moreover, in the experiment with PSMA Fab [6], the “Phage binding ELISA signal, Anti-PSMA Fab with PSMA antigen” value came out at 0.135.
In the case of TCSAGATYMWPACF [Phage-1567], the “Phage binding ELISA, Anti-CD28 Fab signal” value in experiment [3] was 1.44. Moreover, the “Phage binding ELISA, Anti-CD28 Fab signal in the presence of CD28” value in experiment [4] came out at 0.1.
The corresponding values for TCSAGATYAWPACF [Phage-1568] are 1.44 and 0.08.

B3: Phage-3110 (peptide)
peptide: VVQLCRPSWMCQGF
notes: as for B2
Turning to B3, the “Phage binding ELISA signal, Anti-PSMA Fab” value with PSMA Fab [5] worked out at 2.08. In the experiment with PSMA Fab [6], the “Phage binding ELISA signal, Anti-PSMA Fab with PSMA antigen” value stood at 0.281.

B4: Phage-3111 (peptide)
peptide: IEIMCMPRWMCDGF
notes: as for B2
Turning to B4, in the experiment with PSMA Fab [5], the “Phage binding ELISA signal, Anti-PSMA Fab” value turned out to be 2.08. In addition, the “Phage binding ELISA signal, Anti-PSMA Fab with PSMA antigen” value in the experiment with PSMA Fab [6] is 0.101.
With TCSAGATYTWPSCF [Phage-1572], the “Phage binding ELISA, Anti-CD28 Fab signal” value in experiment [3] amounted to 1.42. Further, in experiment [4], the “Phage binding ELISA, Anti-CD28 Fab signal in the presence of CD28” value worked out at 0.06.
The corresponding values for TCAAGANWHWPWCF [Phage-1561] are 1.46 and 0.15.
Regarding AEVKCIPQWMCQGF (peptide, not shown: large carriers, Clonal phage supernatant) [Phage-1795], the “Anti-PSMA Fab signal” value in experiment [1] was found to be 0.0852. Also, the “Anti-PSMA Fab (SEQ ID NOs: 19, 20) signal” value in experiment [2] amounted to 2.43.

B5: Phage-1802 (peptide, not shown: large carriers)
peptide: LHVYCVPEWMCAGF
notes: Clonal phage supernatant; also called Peptide-272
Consider B5, for which, in experiment [1], the “Anti-PSMA Fab signal” value amounted to 0.109. Further, the “Anti-PSMA Fab (SEQ ID NOs: 19, 20) signal” value in experiment [2] was found to be 2.38.

B6: Phage-1790 (peptide, not shown: large carriers)
peptide: EPKWCVPRGLCNYD
notes: Clonal phage supernatant; also called Peptide-240
With B6, the “Anti-PSMA Fab signal” value in experiment [1] is 0.0587. In experiment [2], the “Anti-PSMA Fab (SEQ ID NOs: 19, 20) signal” value turned out to be 1.14.
For SCAAGATYVWPMCF [Phage-1574], the “Phage binding ELISA, Anti-CD28 Fab signal” value in experiment [3] worked out at 1.42. Further, the “Phage binding ELISA, Anti-CD28 Fab signal in the presence of CD28” value in experiment [4] came to 0.07.
The corresponding values for SCSAGALWKWPVCF [Phage-1563] are 1.45 and 0.07.

B7: Phage-3102 (peptide)
peptide: DFAYCKPEWMCVGF
notes: as for B2
B7: the “Phage binding ELISA signal, Anti-PSMA Fab” value with PSMA Fab [5] turned out to be 2.09. Besides, in the experiment with PSMA Fab [6], the “Phage binding ELISA signal, Anti-PSMA Fab with PSMA antigen” value is 0.0844.

B8: Phage-3105 (peptide)
peptide: QEIRCEPIWMCWGF
notes: as for B2
In the case of B8, the “Phage binding ELISA signal, Anti-PSMA Fab” value with PSMA Fab [5] is 2.09. For the same molecule, the “Phage binding ELISA signal, Anti-PSMA Fab with PSMA antigen” value in the experiment with PSMA Fab [6] was found to be 0.147.

B9: Phage-3108 (peptide)
peptide: SEVVCVPTWMCTGF
notes: as for B2
On to B9, for which the “Phage binding ELISA signal, Anti-PSMA Fab” value in the experiment with PSMA Fab [5] turned out to be 2.08. Moreover, the “Phage binding ELISA signal, Anti-PSMA Fab with PSMA antigen” value with PSMA Fab [6] was 0.0805.
On to EDILCKPKWMCEGF (peptide, not shown: large carriers, Clonal phage supernatant) [Phage-1801], for which the “Anti-PSMA Fab signal” value in experiment [1] was 0.109. In addition, in experiment [2], the “Anti-PSMA Fab (SEQ ID NOs: 19, 20) signal” value was 2.4.
The corresponding values for IVPLCKPAWMCKLF (peptide, not shown: large carriers, Clonal phage supernatant) [Phage-1792] are 0.221 and 2.48.
With WCDQFFHYKWPLCL [Phage-1573], the “Phage binding ELISA, Anti-CD28 Fab signal” value in experiment [3] turned out to be 1.42. In addition, the “Phage binding ELISA, Anti-CD28 Fab signal in the presence of CD28” value in experiment [4] was determined as 0.07.

B10: Phage-3107 (peptide)
peptide: PVAVCKPEWMCIGF
notes: as for B2
Turning to B10, the “Phage binding ELISA signal, Anti-PSMA Fab” value in the experiment with PSMA Fab [5] was found to be 2.08. Besides, the “Phage binding ELISA signal, Anti-PSMA Fab with PSMA antigen” value in the experiment with PSMA Fab [6] worked out at 0.105.

B11: Phage-1326 (peptide)
peptide: YCDGHDEQYLMKCL
notes: Peptide-87 library clone, tested as clonal phage (peptide fused to pIII of the bacteriophage)
As to B11, the “Anti-CD28 Fab signal (phage binding ELISA)” value in experiment [7] came to 0.44. Further, in experiment [8], the “Anti-CD28 Fab signal in the presence of CD28 (phage binding ELISA)” value turned out to be 0.07.

B12: Phage-3103 (peptide)
peptide: GEILCRPAWMCYGF
notes: as for B2
With B12, the “Phage binding ELISA signal, Anti-PSMA Fab” value with PSMA Fab [5] is 2.09. Moreover, the “Phage binding ELISA signal, Anti-PSMA Fab with PSMA antigen” value with PSMA Fab [6] came to 0.119.

B13: Phage-1324 (peptide)
peptide: YCEGHMQWYMAKCL
notes: as for B11
As to B13, the “Anti-CD28 Fab signal (phage binding ELISA)” value in experiment [7] stood at 0.45. The “Anti-CD28 Fab signal in the presence of CD28 (phage binding ELISA)” value in experiment [8] was 0.09.

B14: Phage-3106 (peptide)
peptide: NPMYCKPSWMCEGF
notes: as for B2
As to B14, the “Phage binding ELISA signal, Anti-PSMA Fab” value in the experiment with PSMA Fab [5] turned out to be 2.08. Moreover, the “Phage binding ELISA signal, Anti-PSMA Fab with PSMA antigen” value with PSMA Fab [6] is 0.0958.
For SCSAGAMYQWPLCF [Phage-1565], the “Phage binding ELISA, Anti-CD28 Fab signal” value in experiment [3] came out at 1.44. For the same molecule, in experiment [4], the “Phage binding ELISA, Anti-CD28 Fab signal in the presence of CD28” value was 0.09.
WCGVGMDWRWPECL [Phage-1569]: the “Phage binding ELISA, Anti-CD28 Fab signal” value in experiment [3] came out at 1.44. Also, the “Phage binding ELISA, Anti-CD28 Fab signal in the presence of CD28” value in experiment [4] was determined as 0.16.
Regarding VQIQCRPAWMCLGF (peptide, not shown: large carriers, Clonal phage supernatant) [Phage-1794], in experiment [1], the “Anti-PSMA Fab signal” value was 0.127. Further, in experiment [2], the “Anti-PSMA Fab (SEQ ID NOs: 19, 20) signal” value was found to be 2.44.

B15: Phage-3109 (peptide)
peptide: VEAMCKPWWMCEGL
notes: as for B2
On to B15, for which the “Phage binding ELISA signal, Anti-PSMA Fab” value in the experiment with PSMA Fab [5] is 2.08. For the same molecule, the “Phage binding ELISA signal, Anti-PSMA Fab with PSMA antigen” value with PSMA Fab [6] amounted to 0.0719.

B16: Phage-1325 (peptide)
peptide: YCEGHAPVYMQKCL
notes: as for B11
As for B16, in experiment [7], the “Anti-CD28 Fab signal (phage binding ELISA)” value came to 0.44. For the same molecule, in experiment [8], the “Anti-CD28 Fab signal in the presence of CD28 (phage binding ELISA)” value turned out to be 0.08.
As to TCEDGFHFSWPECF [Phage-1570], the “Phage binding ELISA, Anti-CD28 Fab signal” value in experiment [3] amounted to 1.44. For the same molecule, the “Phage binding ELISA, Anti-CD28 Fab signal in the presence of CD28” value in experiment [4] came to 0.07.

B17: Phage-3104 (peptide)
peptide: GEVLCRPAWMCSGF
notes: as for B2
On to B17, for which the “Phage binding ELISA signal, Anti-PSMA Fab” value in the experiment with PSMA Fab [5] came out at 2.09. In the experiment with PSMA Fab [6], the “Phage binding ELISA signal, Anti-PSMA Fab with PSMA antigen” value amounted to 0.11.
As for FTNYCVPSWMCTGF (peptide, not shown: large carriers, Clonal phage supernatant) [Phage-1797], the “Anti-PSMA Fab signal” value in experiment [1] is 0.129. Moreover, the “Anti-PSMA Fab (SEQ ID NOs: 19, 20) signal” value in experiment [2] stood at 2.42.
On to LCAAGATYPWPICL [Phage-1562], for which, in experiment [3], the “Phage binding ELISA, Anti-CD28 Fab signal” value worked out at 1.46. Moreover, the “Phage binding ELISA, Anti-CD28 Fab signal in the presence of CD28” value in experiment [4] was 0.08.
On to VEKVCKPVWMCVGF (peptide, not shown: large carriers, Clonal phage supernatant) [Phage-1798], for which the “Anti-PSMA Fab signal” value in experiment [1] stood at 0.156. Further, the “Anti-PSMA Fab (SEQ ID NOs: 19, 20) signal” value in experiment [2] was found to be 2.41.
For the molecule TCAAGAHYSWPFCM [Phage-1575], the “Phage binding ELISA, Anti-CD28 Fab signal” value in experiment [3] came out at 1.42. Also, the “Phage binding ELISA, Anti-CD28 Fab signal in the presence of CD28” value in experiment [4] worked out at 0.07.
In the case of YFVQCRPAWMCEGF (peptide, not shown: large carriers, Clonal phage supernatant) [Phage-1791], the “Anti-PSMA Fab signal” value in experiment [1] was found to be 0.339. Moreover, the “Anti-PSMA Fab (SEQ ID NOs: 19, 20) signal” value in experiment [2] is 2.51.
The corresponding values for AVKACIPEWMCIGF (peptide, not shown: large carriers, Clonal phage supernatant) [Phage-1793] are 0.106 and 2.44.
For EEPLCRPVWMCEGF (peptide, not shown: large carriers, Clonal phage supernatant) [Phage-1799], in that order: 0.117 and 2.41.
